Assay results: patent US20240294624A1, “ANTI-ERYTHROPOIETIN ANTIBODY” (ANDREMACON S.R.L., priority 2021, published 2024)

Key:
A549 = experiment: MTT cell viability assay; assay type: cell-based, human; conditions: 96 hours, 6 μg/ml
Source text: J. Lung carcinoma cell line (A549): human lung cancer cells used for drug efficacy screening, biochemical mechanisms and alveolar differentiation;

S-ECs = experiment: Tube formation assay on Matrigel; assay type: cell-based, human; conditions: 48 h
Experimental: S-ECs (1×10^4) were plated on 10 μL of Matrigel in BM, as a Control Condition (CTR, FIG. 19A) or in media containing the anti-EPO (C4) (FIG. 19B), FTY720 (FIG. 19C), and anti-EPO (C4)+FTY720 (FIG. 19D) treatments, as reported above. S-ECs were incubated at 37° C., 5% C02, 5% 02. After 48 h, tube-like structure formation was evaluated by phase-contrast microscopy. […] Data are expressed as the mean±standard deviation of at least 3 experiments in triplicate. * P<0.05 versus CTR for treatments tested.

LNCAP = experiment: MTT cell viability assay; assay type: cell-based, human; conditions: 96 hours, 6 μg/ml
Source text: (§1) F. Prostate cancer cell lines (PC-3 and LNCAP); human prostate cancer cells used in cancer research and drug development. […] have been reported to be overexpressed and associated with poor prognosis and reduced survival in prostate cancer patients, and are considered predictive markers of aggressive prostate cancer behavior.

PC-3 = experiment: MTT cell viability assay; assay type: cell-based, human; conditions: 96 hours, 6 μg/ml
Source text: as §1

[1] = Tissue distribution by SPR (tumor, liver, kidney); assay type: in vivo, mice
Experimental: Tumor tissues were analyzed after their homogenization in TBST (1 g/2 mL) with an Precellys ysing Kit tubes, ultracentrifugation for 1 h at 110000 g and 1:2 dilution of the supernatant into optimized TBST buffer.
The pharmacokinetic (PK) profile of anti-EPO (C4) was assessed after single i.v. injection in mice models for glioblastoma. In particular, the antibody concentrations were measured at different time points after treatment (from 6 hours to 1 week) in:
1) plasma, to determine the main PK parameters (mainly half-time of elimination and volume of distribution); 2) tumor, to assess the antibody presence in the target tissue; 3) in kidney and liver to evaluate the elimination route.
When tumor masses reached about 500 mg, animals were treated i.v. with 10 mg/kg of anti-EPO (C4) antibody. Blood samples were collected from the retroorbital plexus under isoflurane anesthesia at 4, 24, 48, 72, 120, and 168 h from treatment (FIG. 26B). Mice were sacrificed by cervical dislocation. Tumors were collected. To obtain plasma, blood samples were centrifuged at 4000 rpm for 10 min at 4° C. All samples were immediately frozen in dry ice and then stored at −20° C. until analysis. Four mice were used at each time point.

human healthy astrocytes = experiment: MTT cell viability assay; assay type: cell-based; conditions: 96 hours
Source text: L. Human healthy Astrocytes is a commercial cell line of human healthy astrocytes

HOC84 stem cells = conditions: naturally resistant to carboplatin, 96 h, CPT 40 μg/mL
Experimental: HOC84, which are naturally resistant to carboplatin (CPT), were cultured for 96 h in basal condition supplemented with 40 μg/mL of CPT. Cell viability was assessed by 3-(4,5-Dimethylthiazol-2-yl)-2,5-Diphenyl-tetrazoliumBromide (MTT) assay, as a function of redox potential (FIG. 24). […] Then, culture media were replaced with fresh media containing the specific treatments, or in BM as a control condition (CTR).
Test was performed in triplicate after 96 h of treatment, by replacing culture media with 100 μL of fresh media added with 10 μL of MTT 5 mg/ml in D-PBS. After 4 h of incubation, media were removed and cells were lysed with 100 μL of 2-propanol/formic acid (95:5, by vol) for 10 min.

SHSY-5Y = experiment: MTT cell viability assay; assay type: cell-based, human; conditions: 96 hours, 6 μg/ml
Source text: K. Neuroblastoma cell line (SHSY-5Y) line is a cell line isolated from a bone marrow biopsy taken from a patient with neuroblastoma. SHSY cells are often used as in vitro models of oncological pathology and neuronal differentiation.

MCF-7 = experiment: MTT cell viability assay; assay type: cell-based, human; conditions: 96 hours, 6 μg/ml
Source text: G. Breast cancer cell line (MCF-7); breast cancer cells.

B1: anti-EPO (C4): isolated anti-Erythropoietin monoclonal antibody, VL SEQ ID NO:6, VH SEQ ID NO:14, hybridoma DSM ACC 3370 (antibody, listed as Homo sapiens, V domains shown)
VH: EVKLQESGGGLVQPGGSLKLSCAASGFTFSTYTMSWVRQTPEKRLEWVAYISNGGDRTYYPDTVKGRFTISRDDAKNTLFLQMSSLKSEDTAMYYCARHNITTVPFTMDYWGQGTSVTVSS
VL: DIVLTQSPASLAVSLGQRATISCRASESVDYYGTGLMQWYQQRPGQPPKLLIYGASNVGSGVPARFSGSGSGTDFSLNIHPVEGDDIAMYFCQQTRKVPSTFGGGTKLEIK
modifications: VH amino acid sequence; VL amino acid sequence
cells initially plated dead (A549): 63%
decrease of total length of formed tubes (S-ECs): 65%
formation of tubular-like structures (S-ECs): able to block the formation of tubular-like structures
cells initially plated dead (LNCAP): 74%
cells initially plated dead (PC-3): 71%
antibody distribution tumor vs kidney and liver ([1]; i.v. 10 mg/Kg, SPR): higher levels of antibody in the tumoral tissues respect to kidney and liver
antibody levels in tumor tissues, PK profile ([1]; tumor, i.v. 10 mg/kg): levels were measurable, with a bell-shaped PK profile
effect on human healthy astrocyte viability (human healthy astrocytes): did not affected human healthy astrocyte viability
mortality (HOC84 stem cells): 66%
cells initially plated dead (SHSY-5Y): 62%
cells initially plated dead (MCF-7): 71%
